Reference: US10428308B2, “Mesoderm and definitive endoderm cell populations” (Icahn School of Medicine at Mount Sinai, priority 2005, dated 2019)

Assays:
EBs = test: Hematopoietic progenitor potential of activin-induced EBs; assay type: cell-based, mouse; settings: day 7 activin-induced EBs, no serum
Procedure: FIGS. 24A and 24B show the hematopoietic progenitor content of EBs differentiated in the presence of different concentrations of activin. A) Progenitor potential of day 7 EBs, Ep are primitive erythroid progenitors, mac/mix represent definitive hematopoietic progenitors. B) Progenitor potential of day 7 activin-induced EBs following 2.5 days of exposure to serum.
For the generation of blast cell colonies (BL-CFC assay), EB-derived cells were plated at 0.5×-1.5×10^5 cells/ml in 1% methylcellulose supplemented with 10% FCS (Hyclone), vascular endothelial growth factor (VEGF; 5 ng/ml), c-kit ligand (KL; 1% conditioned medium), IL-6 (5 ng/ml) and 25% D4T endothelial cell conditioned medium (Kennedy et al. (1997) Nature 386:488-93). Transitional colonies were generated in the absence of VEGF. Colonies were scored following four days of culture. […] Primitive erythroid colonies were scored at day 5-6 of culture, whereas definitive erythroid (BFU-E), macrophage, and multilineage colonies were counted at 7-10 days of culture. […]
To further evaluate the hematopoietic potential of these EBs, they were analyzed for progenitor potential.

[1] = system: GFP^+ hCD4^med cells from CD4-HNF/GFP-T ES cells; test: Reaggregation of sorted GFP^+ hCD4^med cells in serum free media with DKK1 and/or activin; assay type: cell-based, mouse
Procedure: FIGS. 35A and 35B depict, the effects of DKK1 and activin on EB differentiation. EBs differentiated and sorted as in FIG. 32 for GFP^+ hCD4^med were allowed to reaggregate in serum replacement containing media alone or with the addition of human DKK1 100 ng/ml, activin 100 ng/ml, or both factors together. […] FIG. 35B depicts endodermal gene expression by RT PCR. The sorted populations were treated as indicated above for 2 days, then plated on matrigel in serum free media without factors added. Gene expression was analyzed an additional 5 days after plating.
Nodal, a key molecule involved in mesoderm/endoderm induction in vivo, signals through the same receptors as activin. It is also known that Nodal as well as inhibitors for Wnt signaling are expressed preferentially in or around the anterior primitive streak. Considering that the endoderm forms from the anterior primitive streak, it is possible that nodal/activin signaling in combination with inhibition of Wnt signals induces endoderm formation. To test this hypothesis, CD4-HNF/GFP-T ES cells were differentiated for 3.25 days in serum and GFP^+ hCD4^med cells were sorted and reaggregated in serum free media with no factor, DKK1 (Wnt inhibitor), activin, or activin and DKK1. The effect of these culture conditions on hCD4-HNF3β and GFP-Bry levels were analyzed by flow cytometry (FIG. 35A). With serum free media alone, hCD4 expression was lost after 1 day reaggregation. […] To further test this idea, sorted cells reaggregated for two days in the culture conditions above were washed with serum free media without factors and plated onto martrigel in serum free media. After 5 days, the cultures were harvested and gene expression determined by RT PCR. […] These culture conditions have the potential to allow the large scale production of endodermal derived tissues such as the pancreas and liver.

B1: activin: growth factor purchased from R&D systems; induces mesoderm and endoderm (protein, UniProt P08476 311-426, looked up)
Inhibin beta A chain: GLECDGKVNICCKKQFFVSFKDIGWNDWIIAPSGYHANYCEGECPSHIAGTSGSSLSFHSTVINHYRMRGHSPFANLKSCCVPTKLRPMSMLYYDDGQNIIKKDIQNMIVEECGCS
For B1, the “primitive (Ep) or definitive (mac/mix) hematopoietic progenitors” value (EBs) was “no appreciable numbers”, the “endoderm gene expression by RT PCR (pancreas, liver, intestine genes)” value ([1]; 2 days treatment, then 5 days on matrigel without factors) was “Very low levels of just two of the genes, Pdxl and ALB” and the “hCD4 (HNF3β) level by flow cytometry” value ([1]; after 1 day reaggregation, DKK1 100 ng/ml, activin 100 ng/ml) was “retention of HNF3β levels similar to newly sorted cells”.
